Results as given in article PMC9288512, “Development and characterization of a camelid derived antibody targeting a linear epitope in the hinge domain of human PCSK9 protein” (Scientific Reports, 2022).
Where a chain is given by its changes, count along the chain named.

B1: VHH-B11 (monovalent camelid nanobody against hPCSK9) (VHH)
VHH: QVQLQESGGGSVQAGGSLRLSCTVSGYTYSSNCMGWFRQAPGKEHEGVASIYIGGGSTYYADSVKGRFTISQDNAKNTVYLQMNSLKPEDTAMYYCAVGCQGLVDFGYWDQGTQVTVSS
notes: VHH-B11, llama nanobody; Also expressed in E. coli and HEK293F; also called VHH-B11 Ab; wild type VHH-B11
B2: VHH-Z3 (VHH-B11 humanized mutant) (VHH)
VHH: B1 VHH with Q1E, Q5L, S11L, A14P, T23A, V24A, V79L, K87R, P88A, M93V
notes: as the chain of m2, mutated at several of the 17 hotspots; has 54Ala in FR2 and 83Ala in FR3; source: P. pastoris X33, secreted, purified
B3: VHH-Z1 (VHH-B11 humanized mutant) (VHH)
VHH: EVQLLESGGGLVQPGGSLRLSCTVSGYTYSSNCMGWFRQAPGKEHEGVSSIYIGGGSTYYADSVKGRFTISRDNSKNTLYLQMNSLRAEDTAVYYCAVGCQGLVDFGYWDQGTQVTVSS
notes: as the chain of m2, mutated at several of the 17 hotspots; has 80Pro in FR3; source: P. pastoris X33, secreted, purified
B4: VHH-Z5 (VHH-B11 humanized mutant) (VHH)
VHH: B3 VHH with T23A, V24A, R72Q, L79V
notes: as the chain of m2, mutated at several of the 17 hotspots; has 87Val in FR3; source: P. pastoris X33, secreted, purified
B5: humanized VHH-B11 (Hu-B11), mutated at all 17 hotspots (VHH)
VHH: B3 VHH with T23A, V24A, F37V, E44G, H45L, G47W
notes: as the chain of m2 with 17 humanising mutations in FR1-3; source: P. pastoris X33, secreted, purified

Legend:
[1] = molecular target: T1, recombinant human proprotein convertase subtilisin/kexin 9 (hPCSK9), his-tagged (Homo sapiens, UniProt Q8NBP7); assay: SPR; hPCSK9 (10 μg/mL in 10 mM sodium acetate pH 4.0) on flow cell 2 of a CM5 chip at 790 RU, flow cell 1 blank; VHH-based proteins injected in two-fold dilutions (five or three points); 25 °C, Biacore T200; binding 120 s, dissociation 300 s or 350 s; regeneration glycine pH 2.3; conditions: both partners purified
T1 construct: human PCSK9, recombinant, his-tagged (Sinobiological); No catalogue number is printed; also called human PCSK9; source: bought: Sinobiological, China

[2] = molecular target: T1, recombinant human proprotein convertase …; assay: as above; conditions: both partners purified; remark: listed apart in the source

T1 sequence (Q8NBP7 153-692): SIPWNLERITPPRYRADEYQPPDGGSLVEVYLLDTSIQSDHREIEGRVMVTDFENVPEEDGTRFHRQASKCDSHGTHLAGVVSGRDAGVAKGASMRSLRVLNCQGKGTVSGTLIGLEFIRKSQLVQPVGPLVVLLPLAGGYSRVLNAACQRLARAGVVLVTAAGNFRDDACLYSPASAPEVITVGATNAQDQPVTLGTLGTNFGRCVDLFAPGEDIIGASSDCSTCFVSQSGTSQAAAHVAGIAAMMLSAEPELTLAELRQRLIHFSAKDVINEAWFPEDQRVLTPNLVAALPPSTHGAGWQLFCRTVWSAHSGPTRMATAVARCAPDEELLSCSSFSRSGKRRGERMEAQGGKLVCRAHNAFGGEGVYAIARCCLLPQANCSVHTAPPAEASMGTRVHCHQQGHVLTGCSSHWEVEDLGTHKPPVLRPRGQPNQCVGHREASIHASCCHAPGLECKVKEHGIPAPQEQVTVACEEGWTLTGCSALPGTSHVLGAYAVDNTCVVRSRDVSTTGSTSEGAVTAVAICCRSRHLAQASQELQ

| Binder | binding result [2] | further results |
| --- | --- | --- |
| B1 | – | Kd [1]: ~4.4 nM |
| B2 | binds | – |
| B3 | binds | – |
| B4 | binds | – |
| B5 | – | Kd [2]: 39.7 nM |
